Assay results published in patent US20230314433A1 (KURUME UNIVERSITY, published 2023).

Legend:
[1] = biological target: T1, human MDA5 protein (full-length, about 120 kDa) (human, UniProt Q9BYX4 1-1025); assay: Western blot of normal lung and lung cancer tissues, mAb at 1 ug/mL
T1 construct: Endogenous cytoplasmic protein in human tissue sections, tissue lysates and PBMCs (band of about 120 kDa); also called IFIH1
T1 sequence: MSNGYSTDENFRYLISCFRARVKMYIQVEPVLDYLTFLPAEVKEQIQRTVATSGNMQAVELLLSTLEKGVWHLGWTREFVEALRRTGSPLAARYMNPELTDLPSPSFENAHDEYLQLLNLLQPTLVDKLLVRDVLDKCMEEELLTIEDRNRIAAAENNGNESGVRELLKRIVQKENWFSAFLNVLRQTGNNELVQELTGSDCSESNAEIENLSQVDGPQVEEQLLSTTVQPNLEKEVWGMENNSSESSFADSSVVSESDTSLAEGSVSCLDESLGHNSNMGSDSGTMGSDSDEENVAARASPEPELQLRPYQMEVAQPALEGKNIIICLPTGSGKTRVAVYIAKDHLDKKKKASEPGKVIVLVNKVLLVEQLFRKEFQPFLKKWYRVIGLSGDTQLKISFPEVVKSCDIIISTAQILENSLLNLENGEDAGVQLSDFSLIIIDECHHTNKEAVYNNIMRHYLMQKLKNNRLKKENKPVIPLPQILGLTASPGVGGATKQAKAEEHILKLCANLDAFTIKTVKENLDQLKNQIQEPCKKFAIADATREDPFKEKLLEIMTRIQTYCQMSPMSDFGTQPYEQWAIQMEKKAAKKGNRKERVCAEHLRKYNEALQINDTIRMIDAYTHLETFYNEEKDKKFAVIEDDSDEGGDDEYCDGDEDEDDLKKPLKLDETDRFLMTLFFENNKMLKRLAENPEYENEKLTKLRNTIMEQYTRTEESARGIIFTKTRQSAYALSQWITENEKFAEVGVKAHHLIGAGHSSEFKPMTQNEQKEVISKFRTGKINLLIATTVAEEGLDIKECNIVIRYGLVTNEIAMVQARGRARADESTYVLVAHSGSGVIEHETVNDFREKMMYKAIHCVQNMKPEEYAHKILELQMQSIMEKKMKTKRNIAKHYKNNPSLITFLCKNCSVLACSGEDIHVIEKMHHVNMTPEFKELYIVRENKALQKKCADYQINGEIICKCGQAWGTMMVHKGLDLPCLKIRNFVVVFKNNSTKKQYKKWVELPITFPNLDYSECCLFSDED
Description: Western blotting analysis was performed by using NuPAGE (registered trademark) 7% Tris-Acetate Midi Gel (Thermo Fisher Scientific, Tokyo, Japan) according to the manufacture’s protocol. Anti-human MDA5 mAb (clone H27 or clone H46, 1 µg/mL) was used for immunoblotting, as previously reported (T. Hoshino, et al., Am J Respir Crit Care Med 176 (2007) 49-62).

[2] = biological target: T2, recombinant human MDA5 protein (human, UniProt Q9BYX4 1-1025); assay: electrochemiluminescence sandwich immunoassay (MSD), H46 coated as primary (capture) mAb
T2 construct: Expressed in SF9 cells with baculovirus; also called pPSC8/human MDA5 product; MDA5 standard; not shown: N-terminal 6X His tag, GST and turbo 3C protease cleavage site
T2 sequence: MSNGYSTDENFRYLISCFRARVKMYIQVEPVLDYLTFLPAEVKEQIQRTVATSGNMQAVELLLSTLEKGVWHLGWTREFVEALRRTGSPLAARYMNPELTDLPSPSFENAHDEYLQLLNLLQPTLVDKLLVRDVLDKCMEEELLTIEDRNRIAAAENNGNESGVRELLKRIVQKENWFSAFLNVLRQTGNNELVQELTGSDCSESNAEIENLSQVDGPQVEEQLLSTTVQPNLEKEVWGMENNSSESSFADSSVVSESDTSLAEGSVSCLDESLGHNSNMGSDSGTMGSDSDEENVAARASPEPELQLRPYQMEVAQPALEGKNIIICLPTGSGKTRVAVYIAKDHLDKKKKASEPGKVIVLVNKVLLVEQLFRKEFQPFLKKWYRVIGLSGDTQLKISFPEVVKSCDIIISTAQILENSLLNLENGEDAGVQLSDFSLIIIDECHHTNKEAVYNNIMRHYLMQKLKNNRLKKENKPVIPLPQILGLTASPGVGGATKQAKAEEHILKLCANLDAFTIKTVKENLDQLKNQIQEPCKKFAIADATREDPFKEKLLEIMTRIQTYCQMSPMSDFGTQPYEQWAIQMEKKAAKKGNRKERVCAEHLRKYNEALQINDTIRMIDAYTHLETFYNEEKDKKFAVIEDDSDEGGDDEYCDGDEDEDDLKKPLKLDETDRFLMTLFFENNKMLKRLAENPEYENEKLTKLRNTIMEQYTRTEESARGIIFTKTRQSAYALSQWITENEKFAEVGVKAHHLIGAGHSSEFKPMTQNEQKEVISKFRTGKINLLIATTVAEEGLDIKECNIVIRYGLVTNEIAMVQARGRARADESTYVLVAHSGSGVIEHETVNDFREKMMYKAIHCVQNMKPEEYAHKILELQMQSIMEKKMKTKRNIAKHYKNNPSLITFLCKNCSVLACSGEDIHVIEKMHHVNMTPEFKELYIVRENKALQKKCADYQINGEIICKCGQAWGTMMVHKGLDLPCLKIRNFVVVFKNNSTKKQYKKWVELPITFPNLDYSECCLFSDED
Description: The human MDA5 sandwich immunoassay system was established using electrochemiluminescence in a MESOSCALE DISCOVERY (registered trademark) assay system (Meso Scale Japan, Tokyo, Japan). Briefly, mouse anti-human MDA5 monoclonal antibody (clone H46) was used as the primary mAb, dissolved at 2 µg/mL in phosphate-buffered saline (PBS), dispensed into plates in aliquots of 25 µL/well, and left undisturbed overnight at 4° C. The plates were then washed three times with 150 µL Quantikine Wash Buffer 1 (R&D Systems, Minneapolis, MN, USA). Block Ace blocking solution (100 µL/well; Nacalai Tesque, Kyoto, Japan) was added and incubated for at least one hour at room temperature to prevent nonspecific adhesion of the secondary antibody to the plates. The plates were then washed thrice. The samples were aliquoted at 25 µL/well. Recombinant human MDA5 protein diluted to 50 ng/mL, 10 ng/mL, 2 ng/mL, 400 pg/mL, 80 pg/mL, 16 pg/mL, and 3.2 pg/mL was used as a standard. After 1 h of incubation at room temperature, each well was washed thrice. Next, 2 µg/mL biotin-labeled mouse anti-human MDA5 secondary mAb (clone H27) was added at 25 µL/well, followed by incubation for 1 h at room temperature after which each well was washed three times. […] The amount of human MDA5 protein was measured using MESO QuickPlex SQ 120 according to the manufacturer’s protocol.

B1: mouse anti-human MDA5 monoclonal antibody (H46) (antibody, V domains shown)
VH: EFQLQQSGPELVKPGASVKISCKASGYSFTDYNMNWVKQSNGKSLEWIGVINPDYGSTSYNKKFKGKATLTVDQSSTTAYMQLNSLTSEDSAVYFCARDRYGNYFDYWGQGTTLTVSS
VL: QIVLTQSPAIMSASPGEKVTMTCSASSSLNYMHWYLQKPGTSPKRWIYDTSKLASGVPARFSGSGSGTSYSLTISSMEAEDAATYYCHQRSSYPITFGSGTKLEIK
notes: Mouse IgG2b from a hybridoma; also called clone H46; H46 [mouse IgG2b]
binding result [1]: binds | binding result [2]: binds
